Data on 1 substance can be found in article PMC8538103.

In assay [1] the target is neuraminidase from A/BrevigMission/1/1918 (H1N1), residues 83 to 468 of the ectodomain, construct pTT5-NA (+SS −TET) (influenza A virus A/BrevigMission/1/1918 (H1N1)). Nature of the assay: crystal structure.
The target is the same in assay [2]. Nature of the assay: dynamic light scattering; in solution; data not shown.

The term stoichiometry N denotes a count of units in the complex or per binding partner. For “neuraminidase from A/BrevigMission/1/1918 (H1N1), residues 83 to 468 of the ectodomain, construct pTT5-NA (+SS −TET) (domain or fragment)”, the stoichiometry N in assay [1] and in assay [2] was 4 in each case.
